The RNAGym collection of RNA variant scans (doi:10.1073/pnas.2313332121)

B1: TPR t1 (parent)
chain: GACCAAUCUGCCCUCAGAGCUCGAGAACAUCUUCGGAUGCAGAGGAGGCAGGCUUCGGUGGCGCGAUAGCGCCAACGUCCUCAACCUCCAAUGCAUCCCACCACAUGAUGAUGCCUGAAGAGCCUUGGUUUUUUG

Variants of: B1
Assay: polymerase ribozyme fitness, log enrichment relative to wild type (log ratio); higher = more active; in vitro selection for triplet polymerase activity
How it was run: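 Genotype fitness is the logarithm of its enrichment divided by wild-type enrichment, using inverse-variance-weighted averages of replicates. That logarithm is base 2. Enrichment was measured by Illumina sequencing of input and output libraries from one triplicate in vitro selection round, with frozen incubation at −7 °C, on PCR-built, transcribed mutant libraries of each subunit of a heterodimeric triplet polymerase ribozyme, retaining genotypes with ≥10 input reads and ≥1 read per output.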

Row | Variant | polymerase ribozyme fitness (log ratio)
1 | C82A C85A | -1.3
2 | U81A A91C C97A A105G C123G | -8.06
3 | C80U A105C U112G G120C | -3.27
4 | C79U A111U A121U | -3.62
5 | C79U A95C G120A | -0.000389
6 | C80G C124G | -4.49
7 | U78G U112G | 1.33
8 | C80U C98G | -6.73
9 | U81A A90G | -0.0144
10 | U78C G135U | -1.27
11 | C79U A91C A100U | -3.6
12 | U78C A103U | -5.46
13 | C79A A91G | -2.3
14 | C80A U106A | -3.28
15 | C80U G107A | -6.42
16 | C82G C114A | -3.29
17 | C82G A91C | -2.29
18 | U78C C88A U106G C114G | -3.35
19 | C80A A84C | -3.11
20 | U81C C115G | -2.02
21 | U81A C101A G110C U131G G135U | -7.53
22 | U78C C124U | 1.72
23 | C82A C88A G113A | -1.71
24 | U78C A121C | 1.83

Row | Variant | polymerase ribozyme fitness (log ratio)
25 | C82A A84C G110C | -4.7
26 | C82A G120C | -0.101
27 | U81C C85A C89A | -4.24
28 | C79A C115G | -2.56
29 | U81C C88A A90U C104G G120U | -7.44
30 | U81A U87C A121G | 1.6
31 | U78G C79A A118G U130G | -2.19
32 | C80A G135U | -3.76
33 | C80A U81C | -4.02
34 | C82A U109G | -4.53
35 | U78C A100U U125G | -1.3
36 | C80A G113A | -3.03
37 | C80A G113C | -5.5
38 | C79G C114A C115G | -6.59
39 | C79A C88G | -2.33
40 | C79A C88A | -1.22
41 | C82A U126A | -2.16
42 | U78C C79G U106A | -0.519
43 | U78C U96A | -0.969
44 | C79U C88U C97U | -0.508
45 | U81A U109A | -5.72
46 | U78G C123A | -1.06
47 | C80A A91G G120U | -5.41
48 | U78C C94U U112C | 0.656

Row | Variant | polymerase ribozyme fitness (log ratio)
49 | C80A C94A U112C | -2.27
50 | U78C A100U | -0.819
51 | U81C C89A A111G | -2.87
52 | C80A G93A | -3.95
53 | C82A A91C | -1.72
54 | C79U G128C | -2.48
55 | C82G G117U C123G C124U | -1.39
56 | U78C U92G | -2.87
57 | U81C G128U | -2.54
58 | C79A G107U A119G G135C | -5.92
59 | U78G G120U | -0.202
60 | C79G G110C | -6.49
61 | C79G G110A | -3.53
62 | C80A A95G | -3.38
63 | U81G A84C U116A G120C | -3.83
64 | C79G A108G | -3.63
65 | C79U U130A | -1.2
66 | C82G G107A | -6.96
67 | C80U A103G | -5.21
68 | C80U C89A A119U | -2.89
69 | C80U C88U G127C | -1.46
70 | C79A A111G | -0.997
71 | C80A C115U | -4.97
72 | C79G A121C | 0.144

Row | Variant | polymerase ribozyme fitness (log ratio)
73 | C79U G107A | -4.41
74 | C82A C102A C114U | -4.27
75 | C82G G110C | -4.38
76 | C82A A111U | -3.3
77 | C82A G93C | -1.06
78 | C79A G120C | 0.837
79 | C82A C89A A105U U112G | -4.43
80 | C79A A105U | -4.41
81 | C80A A95U C114U C124U | -7.55
82 | C80A U112G | -4.16
83 | U78C C101U G120U A121U U132A | 1.42
84 | C82G C102A U112A G120C U125G | -4.33
85 | C79G C123G | 0.221
86 | C82A C99U G122A | -3.36
87 | C80U G113C G135C | -2.92
88 | U78G A103C U130C | -5.75
89 | C80A A118G | -3.23
90 | C79U A119U | -0.48
91 | C79U C114A G120C G127U | -1.06
92 | U78C G93A | -0.707
93 | U78C C82U C123G G127C | -1.21
94 | C80G A100C U131A | -5.8
95 | U81C C115A G128C U131G | -4.42
96 | C79G C123G U133A | 0.663

Row | Variant | polymerase ribozyme fitness (log ratio)
97 | C80A C86U | -3.32
98 | C82G A83C | -0.655
99 | U78G G128A | -1.19
100 | C79A C94A G117U | -4.86
101 | C79A G113A C124G | -3.89
102 | U78C A118G | -0.499
103 | U78C C114U | -2.28
104 | U78C C114G | -2.46
105 | C82A U129A | -2.69
106 | C82A U129C | -0.227
107 | U78C C115G U133A | -1.97
108 | C80U U129G U133A | -2.36
109 | U78C U87G C88A G113A G127A | -3.89
110 | C82A C115G U130G | -1.11
111 | C80G U87A A90U A111C | -6.64
112 | U78C C80G | -4.13
113 | U78C C80A | -1.94
114 | C82A C85A G120U | -0.479
115 | C82A A103U | -6.11
116 | U78C G93C U96C C115A | -1.13
117 | U78C C86G | -0.656
118 | U78C G128A | -1.95
119 | C79U A90C G93A | -2.09
120 | U78C C88U | 0.285

Row | Variant | polymerase ribozyme fitness (log ratio)
121 | C79G U112A | -1.41
122 | U81C G93C | -1.57
123 | C79A | -1.04
124 | C79U | -0.19
125 | C79G | -1.54
126 | C82G | -0.684
127 | C82A | -0.485
128 | C82U | -0.201
129 | C79A A121U U134G | 2.45
130 | C82G A91C C115G | -2.49
131 | U78C C89U G93U | -1.09
132 | C80U G117A | -2.28
133 | C80A G117U | -5.19
134 | C79U U92G C115G | -3.67
135 | C80U C88G C124U | -1.05
136 | U81G U106G C124U | -5.53
137 | U78C A105G U112G | -3.99
138 | U78C U106G | -1.09
139 | U78C G113C | -1.53
140 | U78C G113U | -3.31
141 | C82A G110C A121U | -3.02
142 | C79A G113A | -2.27
143 | C79A C124G | -0.697
144 | C79G G127A | -2.38

Row | Variant | polymerase ribozyme fitness (log ratio)
145 | C79G G127U | -2.87
146 | C80U C114U | -2.33
147 | C80A A121C | -1.11
148 | U81C C88U | 0.221
149 | C82G C86U C102U U112G | -3.94
150 | U78G C88G | -0.734
151 | C79A A84G | -3.26
152 | C80U U96C | -0.313
153 | C79U G117A A119U | -4
154 | C80U C94G | -1.73
155 | U81C G117A A119U | -3.73
156 | C82G C124U | 1.29
157 | C80U A119G | 0.683
158 | C80U U81A C89U U126G | -3.21
159 | U78C C79U U106C | 0.0469
160 | U78C C89U C115A | -0.146
161 | C79A C123A | -0.392
162 | U78C A95C | -1.06
163 | U81A C85U | -2.56
164 | C79U C80U | -2.32
165 | C82G U106A | -0.594
166 | C79G A90C U112A | -3.88
167 | C79U U129G | -1.35
